Among the data in the Human Domainome abundance scans (Beltran et al. 2025) are abundance fitness values, retold here.

To fix the notation:
B1: RNA-binding E3 ubiquitin-protein ligase MEX3C, residues 325 to 391; numbered along this chain, Q5U5Q3 (parent)
chain: GQTTVQVRVPYRVVGLVVGPKGATIKRIQQQTHTYIVTPSRDKEPVFEVTGMPENVDRAREEIEMHI
B2: Histone-lysine N-methyltransferase 2A, residues 1148 to 1194; numbered along this chain, Q03164 (parent)
chain: KGRRSRRCGQCPGCQVPEDCGVCTNCLDKPKFGGRNIKKQCCKMRKC

± gives the uncertainty stated by the source.

In the first data set the parent is B1. The experiment in a line: abundance fitness (aPCA) (normalised: wild type 0, dead -1); higher = more abundant; growth selection in yeast, the domain comes from the species named. To be noted: Homo sapiens.
Consider RQTTVQVRVPYRVVGLVVGPKGATIKRIQQQTHTYIVTPSRDKEPVFEVTGMPENVDRAREEIEMHI, for which the abundance fitness is -0.022 ± 0.31.
On the same count and under the same terms, as for DQTTVQVRVPYRVVGLVVGPKGATIKRIQQQTHTYIVTPSRDKEPVFEVTGMPENVDRAREEIEMHI, the figure is -0.136 ± 0.066; as for VQTTVQVRVPYRVVGLVVGPKGATIKRIQQQTHTYIVTPSRDKEPVFEVTGMPENVDRAREEIEMHI, -0.283 ± 0.3; as for SQTTVQVRVPYRVVGLVVGPKGATIKRIQQQTHTYIVTPSRDKEPVFEVTGMPENVDRAREEIEMHI, -0.094 ± 0.085.
Same read-out and setting: as for AQTTVQVRVPYRVVGLVVGPKGATIKRIQQQTHTYIVTPSRDKEPVFEVTGMPENVDRAREEIEMHI, the figure is -0.27 ± 0.44; as for GITTVQVRVPYRVVGLVVGPKGATIKRIQQQTHTYIVTPSRDKEPVFEVTGMPENVDRAREEIEMHI, -0.174 ± 0.18; as for GFTTVQVRVPYRVVGLVVGPKGATIKRIQQQTHTYIVTPSRDKEPVFEVTGMPENVDRAREEIEMHI, 0.057 ± 0.088.
Same read-out and setting: to GLTTVQVRVPYRVVGLVVGPKGATIKRIQQQTHTYIVTPSRDKEPVFEVTGMPENVDRAREEIEMHI belongs 0.017 ± 0.06; to GKTTVQVRVPYRVVGLVVGPKGATIKRIQQQTHTYIVTPSRDKEPVFEVTGMPENVDRAREEIEMHI, 0.145 ± 0.089; to GATTVQVRVPYRVVGLVVGPKGATIKRIQQQTHTYIVTPSRDKEPVFEVTGMPENVDRAREEIEMHI, -0.409 ± 0.1.
Consider GETTVQVRVPYRVVGLVVGPKGATIKRIQQQTHTYIVTPSRDKEPVFEVTGMPENVDRAREEIEMHI, for which the abundance fitness is -0.022 ± 0.089.
Turning to GGTTVQVRVPYRVVGLVVGPKGATIKRIQQQTHTYIVTPSRDKEPVFEVTGMPENVDRAREEIEMHI, the abundance fitness was -0.403 ± 0.073.
The same measure, in the same setting: to GPTTVQVRVPYRVVGLVVGPKGATIKRIQQQTHTYIVTPSRDKEPVFEVTGMPENVDRAREEIEMHI belongs -0.181 ± 0.082; to GRTTVQVRVPYRVVGLVVGPKGATIKRIQQQTHTYIVTPSRDKEPVFEVTGMPENVDRAREEIEMHI, -0.208 ± 0.053; to GWTTVQVRVPYRVVGLVVGPKGATIKRIQQQTHTYIVTPSRDKEPVFEVTGMPENVDRAREEIEMHI, -0.302 ± 0.081.
Still for that read-out and setting: as for GVTTVQVRVPYRVVGLVVGPKGATIKRIQQQTHTYIVTPSRDKEPVFEVTGMPENVDRAREEIEMHI, the figure is -0.069 ± 0.078.
Same read-out and setting: to GNTTVQVRVPYRVVGLVVGPKGATIKRIQQQTHTYIVTPSRDKEPVFEVTGMPENVDRAREEIEMHI belongs -0.061 ± 0.092.
As for GMTTVQVRVPYRVVGLVVGPKGATIKRIQQQTHTYIVTPSRDKEPVFEVTGMPENVDRAREEIEMHI, the abundance fitness is -0.001 ± 0.13.
The same measure, in the same setting: as for GCTTVQVRVPYRVVGLVVGPKGATIKRIQQQTHTYIVTPSRDKEPVFEVTGMPENVDRAREEIEMHI, the figure is -0.148 ± 0.093.
GDTTVQVRVPYRVVGLVVGPKGATIKRIQQQTHTYIVTPSRDKEPVFEVTGMPENVDRAREEIEMHI: the abundance fitness was -0.155 ± 0.18.
The same measure, in the same setting: as for GYTTVQVRVPYRVVGLVVGPKGATIKRIQQQTHTYIVTPSRDKEPVFEVTGMPENVDRAREEIEMHI, the figure is -0.047 ± 0.12.
On the same count and under the same terms, to GHTTVQVRVPYRVVGLVVGPKGATIKRIQQQTHTYIVTPSRDKEPVFEVTGMPENVDRAREEIEMHI belongs 0.017 ± 0.12; to GSTTVQVRVPYRVVGLVVGPKGATIKRIQQQTHTYIVTPSRDKEPVFEVTGMPENVDRAREEIEMHI, -0.356 ± 0.098; to GQETVQVRVPYRVVGLVVGPKGATIKRIQQQTHTYIVTPSRDKEPVFEVTGMPENVDRAREEIEMHI, -0.385 ± 0.079.
As to GQDTVQVRVPYRVVGLVVGPKGATIKRIQQQTHTYIVTPSRDKEPVFEVTGMPENVDRAREEIEMHI, the abundance fitness is -0.45 ± 0.1.
On to GQATVQVRVPYRVVGLVVGPKGATIKRIQQQTHTYIVTPSRDKEPVFEVTGMPENVDRAREEIEMHI, for which the abundance fitness was -0.799 ± 0.11.
Still for that read-out and setting: as for GQCTVQVRVPYRVVGLVVGPKGATIKRIQQQTHTYIVTPSRDKEPVFEVTGMPENVDRAREEIEMHI, the figure is -0.256 ± 0.11; as for GQGTVQVRVPYRVVGLVVGPKGATIKRIQQQTHTYIVTPSRDKEPVFEVTGMPENVDRAREEIEMHI, -0.519 ± 0.065.

The variants in another data set derive from B2. The description is as above. Particulars: Homo sapiens.
As for KGRRSRRCGQCPGCQVPEDCGVCTNCLDKPKFGGRNIKKQCCKMREC, the abundance fitness amounted to 0.105 ± 0.18.
Turning to KGRRSRRCGQCPGCQVPEDCGVCTNCLDKPKFGGRNIKKQCCKMRDC, the abundance fitness came to 0.231 ± 0.21.
In the case of KGRRSRRCGQCPGCQVPEDCGVCTNCLDKPKFGGRNIKKQCCKMRIC, the abundance fitness worked out at 0.356 ± 0.19.
Regarding KGRRSRRCGQCPGCQVPEDCGVCTNCLDKPKFGGRNIKKQCCKMRNC, the abundance fitness is -0.728 ± 0.3.
Still for that read-out and setting: as for KGRRSRRCGQCPGCQVPEDCGVCTNCLDKPKFGGRNIKKQCCKMRAC, the figure is 0.206 ± 0.12; as for KGRRSRRCGQCPGCQVPEDCGVCTNCLDKPKFGGRNIKKQCCKMRFC, -0.21 ± 0.21.
On to KGRRSRRCGQCPGCQVPEDCGVCTNCLDKPKFGGRNIKKQCCKMRMC, for which the abundance fitness was 0.074 ± 0.15.
With KGRRSRRCGQCPGCQVPEDCGVCTNCLDKPKFGGRNIKKQCCKMRQC, the abundance fitness was 0.153 ± 0.12.
With KGRRSRRCGQCPGCQVPEDCGVCTNCLDKPKFGGRNIKKQCCKMRHC, the abundance fitness was -0.02 ± 0.18.
Consider KGRRSRRCGQCPGCQVPEDCGVCTNCLDKPKFGGRNIKKQCCKMRCC, for which the abundance fitness is -0.17 ± 0.22.
KGRRSRRCGQCPGCQVPEDCGVCTNCLDKPKFGGRNIKKQCCKMRSC: the abundance fitness is -0.12 ± 0.11.
The same measure, in the same setting: as for KGRRSRRCGQCPGCQVPEDCGVCTNCLDKPKFGGRNIKKQCCKMRVC, the figure is 0.039 ± 0.14; as for KGRRSRRCGQCPGCQVPEDCGVCTNCLDKPKFGGRNIKKQCCKMRYC, -0.128 ± 0.16; as for KGRRSRRCGQCPGCQVPEDCGVCTNCLDKPKFGGRNIKKQCCKMRPC, -0.341 ± 0.15.
Turning to KGRRSRRCGQCPGCQVPEDCGVCTNCLDKPKFGGRNIKKQCCKMRGC, the abundance fitness was -0.145 ± 0.14.
Same read-out and setting: to KGRRSRRCGQCPGCQVPEDCGVCTNCLDKPKFGGRNIKKQCCKMRWC belongs -0.31 ± 0.14.
Turning to KGRRSRRCGQCPGCQVPEDCGVCTNCLDKPKFGGRNIKKQCCKMRRC, the abundance fitness was -0.205 ± 0.09.
Same read-out and setting: to KGRRSRRCGQCPGCQVPEDCGVCTNCLDKPKFGGRNIKKQCCKIRKC belongs -0.021 ± 0.14.
The same measure, in the same setting: as for KGRRSRRCGQCPGCQVPEDCGVCTNCLDKPKFGGRNIKKQCCKNRKC, the figure is -0.253 ± 0.21; as for KGRRSRRCGQCPGCQVPEDCGVCTNCLDKPKFGGRNIKKQCCKSRKC, -0.335 ± 0.099.
As for KGRRSRRCGQCPGCQVPEDCGVCTNCLDKPKFGGRNIKKQCCKCRKC, the abundance fitness was -0.484 ± 0.1.
Still for that read-out and setting: as for KGRRSRRCGQCPGCQVPEDCGVCTNCLDKPKFGGRNIKKQCCKGRKC, the figure is -0.251 ± 0.079.
